From patent US7910550B2, “Human kunitz-type inhibitor with enhanced antifibrinolytic activity” (STC.UNM, priority 2004, dated 2011)

Tested on: HT-1080 fibrosarcoma xenografts
Type: in vivo, SCID mice
Description: The relative mRNA abundance in the snap-frozen tumor xenograft samples was assessed by oligonucleotide-based microarray analysis using an Affymetrix […] Human Genome U133 set (Affymetrix, Inc., Santa Clara, Calif.). This microarray consists of two array units of over one million unique oligonucleotide features covering over 39,000 transcript variants that represent 33,000 of the best characterized human genes. Additional information regarding these chips is available on-line at the Affymetrix, Inc. website. Biotinylated cRNA probe preparation, processing, hybridization and normalization were performed as described in the Affymetrix […] Expression Analysis Manual. Florescence images were captured using a gene array scanner (Affymetrix, Inc., Santa Clara, Calif.) and expression analysis was performed using GeneSpring v5.1 software. The wild-type TFPI-2 transfected (WT) tumor ratio of medians was normalized with that obtained from mock-transfected (MT) tumors.

[1] = TFPI-2 expressing tumors over mock-transfected tumors
[2] = human fibrosarcomas secreting wild-type human TFPI-2

B1: TFPI-2: Human tissue factor pathway inhibitor-2, 213 amino acid polypeptide with three tandem Kunitz-type domains (SEQ ID NO:1) (protein, listed as Homo sapiens)
chain: DAAQEPTGNNAEICLLPLDYGPCRALLLRYYYDRYTQSCRQFLYGGCEGNANNFYTWEACDDACWRIEKVPKVCRLQVSVDDQCEGSTEKYFFNLSSMTCEKFFSGGCHRNRIENRFPDEATCMGFCAPKKIPSFCYSPKDEGLCSANVTRYYFNPRYRTCDAFTYTGCGGNDNNFVSREDCKRACAKALKKKKKMPKLRFASRIRKIRKKQF
  Fold Change mRNA: Erythropoietin-producing hepatocyte kinase, EphB6 (NM_004445): −2.38 fold
[1]
  Fold Change mRNA: ADAM-TS2 (NM_021599): −4.62 fold
  Fold Change mRNA: Alpha 1 chain of Type XII Collagen (AA669336): +7.26 fold
  Fold Change mRNA: Aquaporin 1 (NM_000385): +2.30 fold
  Fold Change mRNA: Biglycan (BC002416): −2.29 fold
  Fold Change mRNA: Bone morphogenetic protein 4 (D30751): +2.79 fold
  Fold Change mRNA: COUP-transcription factor (X16155): −2.79 fold
  Fold Change mRNA: CUB domain-containing protein 1 (CDCP1) (NM_022842): −18.70 fold
  Fold Change mRNA: Cell death regulator Aven (NM_020371): −2.11 fold
  Fold Change mRNA: Chondroitin sulfate proteoglycan 2 (versican) (D32039): −2.13 fold
  Fold Change mRNA: Collagen, type 1, alpha 1 (NM_000088): +3.51 fold
  Fold Change mRNA: Cytidine deaminase (NM_001785): +35.30 fold
  Fold Change mRNA: EEF1A2, Eukaryotic translation elongation factor 1 alpha 2 (NM_001958): +6.85 fold
  Fold Change mRNA: EGF-TM7-latrophilin-related protein (NM_022159): −2.92 fold
  Fold Change mRNA: EIF2Ak1, protein kinase, PKR (NM_002759): +2.51 fold
  Fold Change mRNA: Endothelin receptor type A (AU118882, NM_001957): −2.90 fold
  Fold Change mRNA: FLT, VEGFR1, Fms-related tyrosine kinase receptor (NM_002019): −2.24 fold
  Fold Change mRNA: Fibronectin 1 (AJ276395): −3.80 fold
  Fold Change mRNA: Formin like (FRL) (NM_005892): −2.14 fold
  Fold Change mRNA: Helicase, Basic leucine zipper transcription factor-1 (NM_001186): −2.11 fold
  Fold Change mRNA: Hemoglobin, epsilon 1, oxygen transport (NM_005330): −7.63 fold
  Fold Change mRNA: Interleukin-8 (IL-8, C—X—CL8) (NM_000584): −6.99 fold
  Fold Change mRNA: Junction plakoglobin (NM_021991): −2.21 fold
  Fold Change mRNA: LIM domain binding 2 (NM_001290): −5.20 fold
  Fold Change mRNA: LIM homeobox protein 6 (NM_014368): +2.91 fold
  Fold Change mRNA: Ligase III, DNA (NM_013975): +2.04 fold
  Fold Change mRNA: Lymphocyte antigen 75, gp200-MR6 (NM_002349): +14.32 fold
  Fold Change mRNA: MAGE-A1, Melanoma antigen family A1 (NM_004988): −2.95 fold
  Fold Change mRNA: Metastasis suppressor gene (NM_014751): +2.06 fold
  Fold Change mRNA: N-Cadherin (M34064): −2.13 fold
  Fold Change mRNA: Neuropeptide Y receptor (L01639): −8.03 fold
  Fold Change mRNA: Nox 4, NADPH oxidase 4 (NM_016931): −2.46 fold
  Fold Change mRNA: Oligophrenin 1 (NM_002547): +2.95 fold
  Fold Change mRNA: PBX-2, Pre-B cell leukemia transcription factor-2 (NM_002586): −2.75 fold
  Fold Change mRNA: Phenylalanine-tRNA synthetase (NM_006567): +2.11 fold
  Fold Change mRNA: Phorbolin-like protein MDS019 (NM_021822): +2.80 fold
  Fold Change mRNA: Protein tyrosine phosphatase, receptor type, U (U71075): −2.48 fold
  Fold Change mRNA: Reversion-inducing-cysteine-rich protein with kazal motif (RECK) (NM_021111): +2.64 fold
  Fold Change mRNA: S100 calcium-binding protein A4 (NM_002961): +2.79 fold
  Fold Change mRNA: Tumor necrosis factor, alpha-induced protein 2 (NM_006291): +2.98 fold
  Fold Change mRNA: Tumor protein D52-like 1 (NM_003287): +2.10 fold
  Fold Change mRNA: Vascular endothelial growth factor C (U58111): −2.41 fold
  Fold Change mRNA: Zinc finger protein 22 (KOX 15) (NM_006963, AA744771): +29.27 fold
  Fold Change mRNA: Zinc finger protein 185 (LIM domain) (NM_006291): +5.05 fold
  Fold Change mRNA: dermatopontin precursor (AI146848): +2.87 fold
  Fold Change mRNA: enigma (LIM domain protein) (AW206786): −2.32 fold
  Fold Change mRNA: fibrillin 1 precursor (AI264196): −2.48 fold
  Fold Change mRNA: platelet derived growth factor alpha polypeptide (NM_002607): +2.53 fold
  Fold Change mRNA: protein tyrosine kinase 7 (NM_002821): +2.33 fold
  Fold Change mRNA: sortilin 1 (SORTI) (BE742268): −4.21 fold
  Fold Change mRNA: thrombospondin 1 precursor (AI812030): −3.39 fold
  Fold Change mRNA: voltage-gated potassium channel activity (AF052169): +2.48 fold
TFPI-2 expressing tumors over mock-transfected tumors, first of two values
  Fold Change mRNA: Chemokine (C—X—C motif), receptor 4 (fusin) (AF348491): −4.21 fold
TFPI-2 expressing tumors over mock-transfected tumors, second of two values
  Fold Change mRNA: Chemokine (C—X—C motif), receptor 4 (fusin) (AJ224869): −27.40 fold
[2]
  IL-8 down regulated: 6.99 fold
  VEGF-C down regulated: 2.41 fold
  VEGF-R1 (FLT1) down regulated: 2.24 fold
